In patent US12269859B2, “Synthetic immune receptors and methods of use thereof” (Angeles Therapeutics, Inc., priority 2016, dated 2025):

B1: 10815 (protein)
chain: MALPVTALLLPLALLLHAARPDIQMTQSPSSLSASVGDRVTITCKASDHINNWLAWYQQKPGQAPKLLIYGATTLETGVPSRFSGSGSGTDYTLTISSLQPEDFATYYCQQSWNTPWTFGQGTKLEIKRLEIQNPDPAVYQLRDSKSSDKSVCLFTDFDSQTNVSQSKDSDVYITDKCVLDMRSMDFKSNSAVAWSNKSDFACANAFNNSIIPEDTFFPSSDVPCDVKLVEKSFETDTNLNFQNLSVIGFRILLLKVAGFNLLMTLRLWSSRAKRSGSGVKQTLNFDLLKLAGDVESNPGPTSMDWIWRILFLVGAATGAHSFEQVQLQQPGAELVKPGASVKMSCKASGYAFSSYWINWMKQKPGQGLEWIGQIYPGDGDTNYNGKFKGRATLTADTSSSTAYMQLSSLTSEDSAVYFCARSITTVVGCAMDYWGQGTSVTVSSTREDLKNVFPPEVAVFEPSKAEIAHTQKATLVCLATGFYPDHVELSWWVNGKEVHSGVCTDPQPLKEQPALNDSRYCLSSRLRVSATFWQNPRNHFRCQVQFYGLSENDEWTQDRAKPVTQIVSAEAWGRADCGITSASYHQGVLSATILYEILLGKATLYAVLVSALVLMAMVKRKDSRGRAKRSGSGATNFSLLKQAGDVEENPGPSRGHMTEYKPTVRLATRDDVPRAVRTLAAAFADYPATRHTVDPDRHIERVTELQELFLTRVGLDIGKVWVADDGAAVAVWTTPESVEAGAVFAEIGPRMAELSGSRLAAQQQMEGLLAPHRPKEPAWFLATVGVSPDHQGKGLGSAVVLPGVEAAERAGVPAFLETSAPRNLPFYERLGFTVTADVEVPEGPRTWCMTRKPGA
B2: 11245 (protein)
chain: MALPVTALLLPLALLLHAARPDIQMTQSPSSLSASVGDRVTITCKASDHINNWLAWYQQKPGQAPKLLIYGATTLETGVPSRFSGSGSGTDYTLTISSLQPEDFATYYCQQSWNTPWTFGQGTKLEIKRLEDLKNVFPPEVAVFEPSKAEIAHTQKATLVCLATGFYPDHVELSWWVNGKEVHSGVCTDPQPLKEQPALNDSRYCLSSRLRVSATFWQNPRNHFRCQVQFYGLSENDEWTQDRAKPVTQIVSAEAWGRADCGITSASYHQGVLSATILYEILLGKATLYAVLVSALVLMAMVKRKDSRGRAKRSGSGATNFSLLKQAGDVEENPGPTSMDWIWRILFLVGAATGAHSFEQVQLQQPGAELVKPGASVKMSCKASGYAFSSYWINWMKQKPGQGLEWIGQIYPGDGDTNYNGKFKGRATLTADTSSSTAYMQLSSLTSEDSAVYFCARSITTVVGCAMDYWGQGTSVTVSSTRIQNPDPAVYQLRDSKSSDKSVCLFTDFDSQTNVSQSKDSDVYITDKCVLDMRSMDFKSNSAVAWSNKSDFACANAFNNSIIPEDTFFPSSDVPCDVKLVEKSFETDTNLNFQNLSVIGFRILLLKVAGFNLLMTLRLWSSRAKRSGSGVKQTLNFDLLKLAGDVESNPGPSRGHMTEYKPTVRLATRDDVPRAVRTLAAAFADYPATRHTVDPDRHIERVTELQELFLTRVGLDIGKVWVADDGAAVAVWTTPESVEAGAVFAEIGPRMAELSGSRLAAQQQMEGLLAPHRPKEPAWFLATVGVSPDHQGKGLGSAVVLPGVEAAERAGVPAFLETSAPRNLPFYERLGFTVTADVEVPEGPRTWCMTRKPGA
B3: 1038 (protein)
chain: MALPVTALLLPLALLLHAARPEIVLTQSPATLSLSPGERATLSCSASSSVSYMHWYQQKPGQAPRLLIYDTSKLASGIPARFSGSGSGTDFTLTISSLEPEDVAVYYCFQGSVYPFTFGQGTKLEIKRLEGKPIPNPLLGLDSTGSGEDLKNVFPPEVAVFEPSEAEISHTQKATLVCLATGFYPDHVELSWWVNGKEVHSGVSTDPQPLKEQPALNDSRYCLSSRLRVSATFWQNPRNHFRCQVQFYGLSENDEWTQDRAKPVTQIVSAEAWGRADCGFTSESYQQGVLSATILYEILLGKATLYAVLVSALVLMAMVKRKDSRGRAKRSGSGATNFSLLKQAGDVEENPGPTSMDWIWRILFLVGAATGAHSFEQVQLQESGPGLVKPSQTLSLTCTVSGGSISTSGMGVGWIRQHPGKGLEWIGHIWWDDDKRYNPALKSRVTISVDTSKNQFSLKLSSVTAADTAVYYCARMELWSYYFDYWGQGTLVTVSSTREQKLISEEDGSGIQNPDPAVYQLRDSKSSDKSVCLFTDFDSQTNVSQSKDSDVYITDKTVLDMRSMDFKSNSAVAWSNKSDFACANAFNNSIIPEDTFFPSPESSCDVKLVEKSFETDTNLNFQNLSVIGFRILLLKVAGFNLLMTLRLWSSRAKRSGSGVKQTLNFDLLKLAGDVESNPGPSRGHMTEYKPTVRLATRDDVPRAVRTLAAAFADYPATRHTVDPDRHIERVTELQELFLTRVGLDIGKVWVADDGAAVAVWTTPESVEAGAVFAEIGPRMAELSGSRLAAQQQMEGLLAPHRPKEPAWFLATVGVSPDHQGKGLGSAVVLPGVEAAERAGVPAFLETSAPRNLPFYERLGFTVTADVEVPEGPRTWCMTRKPGA
modifications: Synthetic polynucleotide encoding a SIR
B4: 102116-A05 (protein)
chain: MRLPAQLLGLLMLWVSGSSGDVVMTQSPLSLPVTPGAPASISCRSSQSIVHSNGNTYLEWYLQKPGQSPKLLIYKVSNRFSGVPDRFSGSGSGTDFTLRISRVEAEDVGIYYCFQGSHVPPTFGPGTKLEIKLEEQKLISEEDLGSGEDLKNVFPPEVAVFEPSKAEIAHTQKATLVCLATGFYPDHVELSWWVNGKEVHSGVCTDPQPLKEQPALNDSRYCLSSRLRVSATFWQNPRNHFRCQVQFYGLSENDEWTQDRAKPVTQIVSAEAWGRADCGITSASYHQGVLSATILYEILLGKATLYAVLVSALVLMAMVKRKDSRGRAKRSGSGATNFSLLKQAGDVEENPGPTSMDWIWRILFLVGAATGAHSFEEVQLVESGGGLVQPGGSLRLSCSASGFTFSSFGMHWVRQAPGKGLEWVAYISSGSSTIYYGDTVKGRFTISRDNAKNSLFLQMSSLRAEDTAVYYCAREGGYYYGRSYYTMDYWGQGTTVTVSTREQKLISEEDLGSGIQNPDPAVYQLRDSKSSDKSVCLFTDFDSQTNVSQSKDSDVYITDKCVLDMRSMDFKSNSAVAWSNKSDFACANAFNNSIIPEDTFFPSSDVPCDVKLVEKSFETDTNLNFQNLSVIGFRILLLKVAGFNLLMTLRLWSSRAKRSGSGVKQTLNFDLLKLAGDVESNPGPSRGHMTEYKPTVRLATRDDVPRAVRTLAAAFADYPATRHTVDPDRHIERVTELQELFLTRVGLDIGKVWVADDGAAVAVWTTPESVEAGAVFAEIGPRMAELSGSRLAAQQQMEGLLAPHRPKEPAWFLATVGVSPDHQGKGLGSAVVLPGVEAAERAGVPAFLETSAPRNLPFYERLGFTVTADVEVPEGPRTWCMTRKPGA
modifications: Synthetic Immune Receptor (SIR)
B5: 080816-G03 (protein)
chain: MALPVTALLLPLALLLHAARPLEGKPIPNPLLGLDSTGSGEDLKNVFPPEVAVFEPSKAEIAHTQKATLVCLATGFYPDHVELSWWVNGKEVHSGVCTDPQPLKEQPALNDSRYCLSSRLRVSATFWQNPRNHFRCQVQFYGLSENDEWTQDRAKPVTQIVSAEAWGRADCGITSASYHQGVLSATILYEILLGKATLYAVLVSALVLMAMVKRKDSRGRAKRSGSGATNFSLLKQAGDVEENPGPTSTMALPVTALLLPLALLLHAARPDIVMTQSQKFMSTSVGDRVSIICKASQNVGTFVAWYQQKPGQSPKLLVYSASNRYTGVPDRFTGSGSGTDFTLTINNMQSEDLADYFCRQYSSYPYTFGGGTKLEIKGGGGSGGGGSGGGGSEVQLQQSGPELVKPGASMKISCKASGYSFSAYTMNWVKQSHGKNLEWIGLINPYNGGTNYNQEFEGKATLTVNKSSNTAFMELLSLTSDDSAVYYCARRDWDYFDYWGQGTTLTVSSTREQKLISEEDLGSGTPFPSLAPPIMLLVDGKQQMVVVCLVLDVAPPGLDSPIWFSAGNGSALDAFTYGPSPATDGTWTNLAHLSLPSEELASWEPLVCHTGPGAEGHSRSTQPMHLSGEASTARTCPQEPLRGTPGGALWLGVLRLLLFKLLLFDLLLTCSCLCDPAGPLPSPATTTRLRALGSHRLHPATETGGREATSSPRPQPRDRRWGDTPPGRKPGSPVRAKRSGSGVKQTLNFDLLKLAGDVESNPGPSRSRGHMTEYKPTVRLATRDDVPRAVRTLAAAFADYPATRHTVDPDRHIERVTELQELFLTRVGLDIGKVWVADDGAAVAVWTTPESVEAGAVFAEIGPRMAELSGSRLAAQQQMEGLLAPHRPKEPAWFLATVGVSPDHQGKGLGSAVVLPGVEAAERAGVPAFLETSAPRNLPFYERLGFTVTADVEVPEGPRTWCMTRKPGA
modifications: Polynucleotide encoding a Synthetic Immune Receptor (SIR)

Experiments:
[1] = system: RAJI cells; test: Jurkat NFAT-GFP assay, coculture with RAJI cells; format: cell-based, human; settings: overnight co-culture with RAJI cells; Table 10C
Protocol: (B) Induction of NFAT promoter driven GFP expression. The control vector- and SIR-expressing Jurkat-NFAT-GFP cocultured for 4-24 hours with the target antigen-expressing cell line (described above) and their ability to bind to the target antigen is assayed by measuring induction of GFP expression using Flow Cytometry. Cellular supernatant is collected and assayed for the induction of cytokines (e.g., IL2).
Jurkat NFAT-GFP Assay For Synthetic Immune Receptors. The Jurkat-NFAT-GFP cells are engineered in such a way that the IL-2 promoter, which carries NFAT binding sites, is cloned upstream of the GFP gene. These cells have been used to study signaling via TCR and CAR. The different SIRs were stably expressed in Jurkat NFAT-GFP cells by lentiviral mediated gene transfer, followed by selection with puromycin. The SIR-expressing Jurkat-NFAT-GFP cells were cocultured with the target cells at E:T ratio of approximately 1:2 for approximately 4 hours to 18 hours. When the interaction between SIRs and their target antigen results in activation of the NFAT pathway, GFP expression is induced.
Induction of GFP expression by coculturing of Jurkat-NFAT-GFP cells expressing different SIR constructs and the different target cells was studied essentially as described previously (Wu, Roybal, Puchner, Onuffer, & Lim, 2015). GFP expression was monitored by FACS analysis. […] In panel B, Jurkat cells expressing SIR targeting CDH6 (Clone ID: 051716-J05), CD276 (Clone ID: 050516-Q06) and Her2/neu (Clone ID: 050516-I03) were incubated with SKOV3 (top) and […] (middle and bottom) cells, respectively. […] The Jurkat-NFAT-GFP cells were engineered to express different SIRs targeting other antigens and the experiment repeated upon coculture with the target cells expressing their respective target antigen. The Jurkat-NFAT-GFP (parental) cells were used as control. […] The names of different SIRs, their SEQ ID NOs, component antigen binding domains and TCR chains can be determined by reference to Tables 7A-7H. A SIR is considered positive in the assay in case the SIR expressing Jurkat-NFAT-GFP cells show greater % GFP positive cells when cultured with the target cell line as compared to parental Jurkat-NFAT-GFP cells. […] The signs +/−, +, 2+ etc. after the name of the cell lines indicate the relative degree of positivity on the Jurkat-NFAT-GFP assay as measured by the % GFP positive cells after culture of the SIR expressing Jurkat-NFAT-GFP cells with that cell line.

[2] = system: target antigen-expressing cell line; test: Jurkat NFAT-GFP assay, coculture with target cell lines expressing the respective target antigen (summary Table 10A); format: cell-based, human; set-up: key: The signs +/−, +, 2+ etc. after the name of the cell lines indicate the relative degree of positivity on the Jurkat-NFAT-GFP assay as measured by the % GFP positive cells; +: relative degree of positivity on the Jurkat-NFAT-GFP assay as measured by the % GFP positive cells; 2+: relative degree of positivity on the Jurkat-NFAT-GFP assay as measured by the % GFP positive cells
How it was run: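 Jurkat cells carrying an NFAT-site IL-2 promoter driving GFP were lentivirally transduced with SIRs, puromycin-selected, then cocultured with antigen-expressing target cells at E:T about 1:2 for about 4–18 hours. GFP induction was read by flow cytometry as % GFP-positive cells versus parental Jurkat-NFAT-GFP.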

Row | Molecule | NFAT-GFP (%) [1] | also measured
1 | B1 | 52.36% | 
2 | B2 | 71.81% | 
3 | B3 | 4.49% | 
4 | B4 |  | NFAT-GFP ASSAY Positive Cell lines: RAJI ([2]; SIR-expressing Jurkat-NFAT-GFP cells cocultured with RAJI, relative % GFP positive cells): RAJI (+/−), U266; NFAT-GFP ASSAY Positive Cell lines: U266 ([2]; SIR-expressing Jurkat-NFAT-GFP cells cocultured with U266, relative % GFP positive cells): (+/−)
5 | B5 |  | NFAT-GFP ASSAY Positive Cell lines ([2]; coculture with TT cells): TT (+/−)
